This experiment addresses IL-13 receptor (IL-4Rα and IL-13Rα1) (UniProt P24394).
Sequence of UniProt P24394 (P24394 26-825, chain 1 of 2): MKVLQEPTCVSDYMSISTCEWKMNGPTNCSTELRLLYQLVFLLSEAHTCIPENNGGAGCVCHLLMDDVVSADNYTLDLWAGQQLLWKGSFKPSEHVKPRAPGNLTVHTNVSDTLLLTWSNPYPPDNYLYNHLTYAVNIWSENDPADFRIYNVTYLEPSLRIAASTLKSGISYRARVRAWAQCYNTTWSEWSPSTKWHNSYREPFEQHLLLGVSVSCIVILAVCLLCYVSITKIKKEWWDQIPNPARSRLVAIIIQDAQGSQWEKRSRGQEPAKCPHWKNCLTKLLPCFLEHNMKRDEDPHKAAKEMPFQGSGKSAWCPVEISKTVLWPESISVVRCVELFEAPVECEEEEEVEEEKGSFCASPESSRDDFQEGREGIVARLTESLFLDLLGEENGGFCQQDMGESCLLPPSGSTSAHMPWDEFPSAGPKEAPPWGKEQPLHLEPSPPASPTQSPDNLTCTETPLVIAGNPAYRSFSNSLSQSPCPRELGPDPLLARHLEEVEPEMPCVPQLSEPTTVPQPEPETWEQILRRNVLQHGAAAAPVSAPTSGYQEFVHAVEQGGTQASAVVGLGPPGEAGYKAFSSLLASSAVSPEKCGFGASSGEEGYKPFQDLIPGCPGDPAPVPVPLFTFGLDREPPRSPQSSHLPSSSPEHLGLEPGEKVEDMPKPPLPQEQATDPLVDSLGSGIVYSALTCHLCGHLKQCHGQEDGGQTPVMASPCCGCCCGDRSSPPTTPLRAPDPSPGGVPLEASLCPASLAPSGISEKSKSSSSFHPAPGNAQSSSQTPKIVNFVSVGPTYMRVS
Sequence of UniProt P24394 (P78552 22-427, chain 2 of 2, further chain): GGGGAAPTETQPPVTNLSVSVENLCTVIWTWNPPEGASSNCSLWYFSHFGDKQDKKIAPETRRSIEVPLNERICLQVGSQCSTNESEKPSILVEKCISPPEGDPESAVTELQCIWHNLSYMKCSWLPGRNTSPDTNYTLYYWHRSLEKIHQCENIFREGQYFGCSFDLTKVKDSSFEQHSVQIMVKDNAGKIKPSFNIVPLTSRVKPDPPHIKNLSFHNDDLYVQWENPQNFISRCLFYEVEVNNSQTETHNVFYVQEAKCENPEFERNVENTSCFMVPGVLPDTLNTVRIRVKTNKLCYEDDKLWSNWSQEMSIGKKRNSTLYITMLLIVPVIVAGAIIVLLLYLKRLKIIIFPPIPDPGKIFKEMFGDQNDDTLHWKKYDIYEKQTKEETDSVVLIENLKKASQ

Substance “human recombinant interleukin 13 (from UniProt P35225 25-146) (ligand)” returned an SEAP reporter (P STAT6/cEBP-SEAP) in HEK-293 cells co-transfected with IL-13Rα1, IL-4Rα and STAT6, 48 h with different physiological IL-13 concentrations; fold induction of 33 fold.

These data come from PMC5653676.
